Assay results: article PMC10397247

T1: 4H349-bH
T1 chain: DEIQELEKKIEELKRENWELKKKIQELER

T2: 4H730-bH
T2 chain: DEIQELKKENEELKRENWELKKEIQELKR

T3: 4H2859-bH
T3 chain: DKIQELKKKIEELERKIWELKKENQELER

T4: 4H932-bH
T4 chain: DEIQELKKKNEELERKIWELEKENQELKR

T5: 4H949-bH
T5 chain: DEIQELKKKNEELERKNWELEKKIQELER

T6: 4H796-bH
T6 chain: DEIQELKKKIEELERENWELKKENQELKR

T7: 4H2931-bH
T7 chain: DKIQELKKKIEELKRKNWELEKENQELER

T8: 4H3297-bH
T8 chain: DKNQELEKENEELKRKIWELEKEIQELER

T9: 4H3041-bH
T9 chain: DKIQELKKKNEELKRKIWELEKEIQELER

T10: 4H3364-bH
T10 chain: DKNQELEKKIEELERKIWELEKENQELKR

T11: 4H56-bH
T11 chain: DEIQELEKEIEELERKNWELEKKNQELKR

T12: 4H3381-bH
T12 chain: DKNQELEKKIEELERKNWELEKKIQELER

T13: 4H491-bA
T13 chain: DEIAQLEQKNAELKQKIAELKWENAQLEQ

T14: P7bHq
T14 chain: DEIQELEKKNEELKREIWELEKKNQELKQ

T15: P6bHq
T15 chain: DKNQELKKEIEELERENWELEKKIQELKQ

T16: P9bHq
T16 chain: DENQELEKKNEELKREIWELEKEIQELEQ

T17: P5bHq
T17 chain: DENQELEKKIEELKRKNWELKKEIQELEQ

T18: P8bHq
T18 chain: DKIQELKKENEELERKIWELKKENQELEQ

T19: O16-bN
T19 chain: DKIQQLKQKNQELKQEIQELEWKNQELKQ


Legend:
Test in all cases: two-hybrid library CCNG1;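 also: natural log of median RNA to DNA barcode read ratio; higher means stronger binding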
4H349-bH = target: T1, 4H349-bH
4H730-bH = target: T2, 4H730-bH
4H2859-bH = target: T3, 4H2859-bH
4H932-bH = target: T4, 4H932-bH
4H949-bH = target: T5, 4H949-bH
4H796-bH = target: T6, 4H796-bH
4H2931-bH = target: T7, 4H2931-bH
4H3297-bH = target: T8, 4H3297-bH
4H3041-bH = target: T9, 4H3041-bH
4H3364-bH = target: T10, 4H3364-bH
4H56-bH = target: T11, 4H56-bH
4H3381-bH = target: T12, 4H3381-bH
4H491-bA = target: T13, 4H491-bA
P7bHq = target: T14, P7bHq
P6bHq = target: T15, P6bHq
P9bHq = target: T16, P9bHq
P5bHq = target: T17, P5bHq
P8bHq = target: T18, P8bHq
O16-bN = target: T19, O16-bN

interaction score (4H349-bH)	interaction score (4H730-bH)	interaction score (4H2859-bH)	interaction score (4H932-bH)	interaction score (4H949-bH)	interaction score (4H796-bH)	interaction score (4H2931-bH)	interaction score (4H3297-bH)	interaction score (4H3041-bH)	interaction score (4H3364-bH)	interaction score (4H56-bH)	interaction score (4H3381-bH)	interaction score (4H491-bA)	interaction score (P7bHq)	interaction score (P6bHq)	interaction score (P9bHq)	interaction score (P5bHq)	interaction score (P8bHq)	interaction score (O16-bN)	Binder
-0.11	-0.682	1.11	-0.5	-1.01	-0.548	-0.182	0.299	1.2	1.02	0.547	0.199	1.08	–	–	–	–	–	–	DKIQELKKKIEELERKIWELKKENQELER [4H2859-bH]
–	–	–	–	–	–	–	–	–	–	–	–	–	-0.58	0.519	-0.517	-1.33	0.944	–	DENQELEKKIEELKRKNWELKKEIQELEQ [P5bHq]
–	–	–	–	–	–	–	–	–	–	–	–	-0.879	–	–	–	–	–	0.749	DEIAQLEQKNAELKQKIAELKWENAQLEQ [4H491-bA]
